Results taken from patent US5985836A, “Alpha-1 proteinase inhibitor binding peptides” (Bayer Corporation, priority 1998, dated 1999).
Ends that are not written are not given here.

How the values were obtained:
A1PI [1] = molecular target: T1, A1PI (Homo sapiens, UniProt P01009); assay: A1PI binding on peptide-resin column, injection of 1 mg A1PI in equilibration buffer; settings: for Percent A1PI Eluted by Fraction Based on Absorbance at 280 nm, 1M NaCl / Percent A1PI Eluted by Fraction Based on Absorbance at 280 nm, 2% Acetic Acid / Percent A1PI Eluted by Fraction Based on Absorbance at 280 nm, Flowthrough / Percent A1PI Eluted by Fraction, 1M NaCl / Percent A1PI Eluted by Fraction, 2% Acetic Acid / Percent A1PI Eluted by Fraction, Flowthrough: 1 mg A1PI in equilibration buffer; for % of Total A1PI Eluted by Fraction (Based on Absorbance at 280 nm), 1M NaCl / % of Total A1PI Eluted by Fraction (Based on Absorbance at 280 nm), 2% Acetic Acid / % of Total A1PI Eluted by Fraction (Based on Absorbance at 280 nm), Flowthrough: Trp position mutations, 1 mg A1PI
T1 construct: Human plasma is currently the only approved source of therapeutic AlPI
T1 sequence (P01009 25-418): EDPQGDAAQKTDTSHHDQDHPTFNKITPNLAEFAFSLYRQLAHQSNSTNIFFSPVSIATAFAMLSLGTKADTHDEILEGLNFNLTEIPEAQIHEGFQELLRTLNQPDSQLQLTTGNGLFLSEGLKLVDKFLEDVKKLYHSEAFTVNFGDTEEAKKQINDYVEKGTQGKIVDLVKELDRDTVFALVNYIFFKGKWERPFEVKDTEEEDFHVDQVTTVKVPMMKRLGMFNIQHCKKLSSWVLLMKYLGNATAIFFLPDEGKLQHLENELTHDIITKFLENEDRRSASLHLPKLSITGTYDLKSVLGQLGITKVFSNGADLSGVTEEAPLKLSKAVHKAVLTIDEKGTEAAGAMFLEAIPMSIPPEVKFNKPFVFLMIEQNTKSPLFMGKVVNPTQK
How it was run: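 Peptides synthesized on A-Totda-Toyopearl chelate resin (0.1 mmole/g) packed in 0.4×5 cm columns; 1 mg A1PI injected in equilibration buffer at 4 °C or 20 °C, 865 or 523 μl/min. Flowthrough, 1M/3M NaCl washes and 2% acetic acid eluate quantified by A280 or immunonephelometry as percent of total eluted.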

Immunoglobulin G (IgG) = assay: Purification from Effluent II+III, IgG mass balance; assay type: binding, human; settings: 1 ml Eff. II+III, 4° C.
Method: (§1) Sequences 1-11 and 15 were assayed with Effluent II+III (Eff. II+III). Eff. II+III is a process intermediate in the Cohn plasma fractionation process. The feed stream contains 20% (by volume) ethanol, 20-25 mg/ml hSA and approximately 1 mg/ml AlPI. The stream also contains other proteins including anti-thrombin III (AT3), immunoglobin G (IgG), immunoglobin A (IgA), apolipoprotein alpha-1 (Apo A-1), transferrin (Trf), haptoglobin (Hpt), and alpha-1 acid glycoprotein (AAG) at concentrations ranging from 0.1-1 mg/ml.
(§2) The columns were assayed using the same technique as the hSA+AlPI experiments, allowing for a 10 minute residence time followed by a constant flow rate of 865 μl/min with step elutions of 1M NaCl, 3M NaCl, and 2% acetic acid. All experiments were conducted at 4° C. The mass balances for the injection of 1 ml Eff. […] The AlPI was enriched from 3% of the total protein in the feed to upwards of 50% in the acid eluate.

A1PI [2] = molecular target: T1, A1PI; assay: A1PI purification from 5 mg hSA + 1 mg A1PI on peptide column, A1PI mass balance; assay type: binding; settings: for Mass AlPI Eluted in Acid Eluate: nephelometry
How it was run: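 Peptides on A-Totda-Toyopearl resin (0.1 mmole/g) in 0.4×5 cm columns; 5 mg hSA + 1 mg A1PI loaded at 4 °C or 20 °C with 10 min residence (17 μl/min). Steps of 1M and 3M NaCl, then 2% acetic acid; fractions quantified by immunonephelometry for mass balance.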

Immunoglobulin A (IgA) = assay: Purification from Effluent II+III, IgA mass balance; assay type: binding, human; settings: 1 ml Eff. II+III, 4° C.
Method: as §1, §2

A1PI [3] = molecular target: T1, A1PI; assay: Purification of A1PI from Effluent II+III on peptide column, A1PI mass balance; assay type: binding; settings: 1 ml Eff. II+III, 4° C.; for Mass Protein per Eluate Fraction, 1M NaCl / Mass Protein per Eluate Fraction, 2% Acetic Acid / Mass Protein per Eluate Fraction, Flow: * as in Tables 4, 5 (below detection limit)
Method: as §1, §2

[4] = molecular target: T2, apolipoprotein alpha-1 (Apo A-1) (Homo sapiens, UniProt P02647); assay: Purification from Effluent II+III, Apo A-1 mass balance; assay type: binding; settings: 1 ml Eff. II+III, 4° C.
T2 construct: Eff; II+III is a process intermediate in the Cohn plasma fractionation process; tissue Bayer Corporation (Clayton, N.C.); host or cells: plasma fraction: Cohn Effluent II+III
T2 sequence (P02647 19-267): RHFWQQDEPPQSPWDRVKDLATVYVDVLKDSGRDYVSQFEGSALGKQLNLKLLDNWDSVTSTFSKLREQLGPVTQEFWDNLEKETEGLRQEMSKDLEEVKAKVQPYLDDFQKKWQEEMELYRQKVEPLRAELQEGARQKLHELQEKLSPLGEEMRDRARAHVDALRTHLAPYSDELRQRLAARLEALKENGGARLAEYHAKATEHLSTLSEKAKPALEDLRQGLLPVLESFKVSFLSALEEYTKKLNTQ
Method: as §1, §2

A1PI [5] = molecular target: T1, A1PI; assay: A1PI yield from dialyzed (aqueous) Effluent II+III; assay type: binding; settings: 4° C.
Method: Effluent II+III was dialyzed against equilibration buffer at 4° C. to remove the ethanol using a 15,000 molecular weight cut-off membrane. Nephelometry of the Eff. […] A portion of the identified sequences were assayed under the same conditions applied for neat Eff. II+III at 4° C. […] II+III compared to the neat, ethanol-containing feed. The binding strength differed for the aqueous feed as more AlPI eluted in 1M NaCl for the aqueous feed. The AlPI eluted in the 1M NaCl fractions was not as enriched as that eluted in the acid eluates.

[6] = * as in Tables 4, 5 (below detection limit)
[7] = A1PI, 5 mg hSA + 1 mg A1PI, 4° C., * Below detection limit
[8] = A1PI, 5 mg hSA + 1 mg A1PI, 4° C., relative to total eluted
[9] = A1PI, 5 mg hSA + 1 mg A1PI, 20° C., * Below detection limit
[10] = A1PI, 5 mg hSA + 1 mg A1PI, 20° C., relative to total eluted
[11] = Table 10, A1PI, 5 mg hSA + 1 mg A1PI, 4° C., * Below detection limit
[12] = Table 10, A1PI, 5 mg hSA + 1 mg A1PI, 4° C., relative to total loaded
[13] = Table 10, A1PI, 5 mg hSA + 1 mg A1PI, 20° C., * Below detection limit
[14] = Table 10, A1PI, 5 mg hSA + 1 mg A1PI, 20° C., relative to total loaded
[15] = Table 11, * Below detection limit
[16] = 1 ml dialyzed Eff. II+III (ethanol removed)
[17] = A1PI, 1 ml dialyzed Eff. II+III

## QYHFWY
A1PI [1]; 4° C.
  Percent A1PI Eluted by Fraction Based on Absorbance at 280 nm, 1M NaCl: 74%
  Percent A1PI Eluted by Fraction Based on Absorbance at 280 nm, 2% Acetic Acid: 26%
  Percent A1PI Eluted by Fraction Based on Absorbance at 280 nm, Flowthrough: 0%
A1PI [1]; 20° C.
  Percent A1PI Eluted by Fraction, 1M NaCl: 0%
  Percent A1PI Eluted by Fraction, 2% Acetic Acid: 4%
  Percent A1PI Eluted by Fraction, Flowthrough: 96%
Immunoglobulin G (IgG)
  Percent Eluted by Fraction, 1M NaCl: 10%
  Percent Eluted by Fraction, 2% Acetic Acid: 0%
  Percent Eluted by Fraction, 3M NaCl: 0%
  Percent Eluted by Fraction, Flow: 90%
Immunoglobulin G (IgG); [6]
  Mass Protein per Eluate Fraction, 1M NaCl: 0.02 mg
  Mass Protein per Eluate Fraction, Flow: 0.21 mg
A1PI [2]; [7]
  Mass Protein per Eluate Fraction, 1M NaCl: 0.35 mg
  Mass Protein per Eluate Fraction, 2% Ac. Acid: 0.35 mg
  Mass Protein per Eluate Fraction, Flow: 0.06 mg
A1PI [2]; [8]
  Percent Eluted by Fraction, 1M NaCl: 46%
  Percent Eluted by Fraction, 2% Ac. Acid: 46%
  Percent Eluted by Fraction, 3M NaCl: 0%
  Percent Eluted by Fraction, Flow: 7%
Immunoglobulin A (IgA)
  Percent Eluted by Fraction, 1M NaCl: 31%
  Percent Eluted by Fraction, 2% Acetic Acid: 38%
  Percent Eluted by Fraction, 3M NaCl: 0%
  Percent Eluted by Fraction, Flow: 31%
Immunoglobulin A (IgA); [6]
  Mass Protein per Eluate Fraction, 1M NaCl: 0.11 mg
  Mass Protein per Eluate Fraction, 2% Acetic Acid: 0.13 mg
  Mass Protein per Eluate Fraction, Flow: 0.11 mg
A1PI [3]; A1PI
  Percent Eluted by Fraction, 1M NaCl: 6%
  Percent Eluted by Fraction, 2% Acetic Acid: 75%
  Percent Eluted by Fraction, 3M NaCl: 0%
  Percent Eluted by Fraction, Flow: 20%
  Mass Protein per Eluate Fraction, 1M NaCl: 0.06 mg
  Mass Protein per Eluate Fraction, 2% Acetic Acid: 0.80 mg
  Mass Protein per Eluate Fraction, Flow: 0.21 mg
[4]
  Percent Eluted by Fraction, 1M NaCl: 0%
  Percent Eluted by Fraction, 2% Acetic Acid: 0%
  Percent Eluted by Fraction, 3M NaCl: 0%
  Percent Eluted by Fraction, Flow: 0%

## RLWRYG
A1PI [1]; 4° C.
  Percent A1PI Eluted by Fraction Based on Absorbance at 280 nm, 1M NaCl: 88%
  Percent A1PI Eluted by Fraction Based on Absorbance at 280 nm, 2% Acetic Acid: 12%
  Percent A1PI Eluted by Fraction Based on Absorbance at 280 nm, Flowthrough: 0%
A1PI [1]; 20° C.
  Percent A1PI Eluted by Fraction, 1M NaCl: 88%
  Percent A1PI Eluted by Fraction, 2% Acetic Acid: 12%
  Percent A1PI Eluted by Fraction, Flowthrough: 0%
Immunoglobulin G (IgG)
  Percent Eluted by Fraction, 1M NaCl: 0%
  Percent Eluted by Fraction, 2% Acetic Acid: 0%
  Percent Eluted by Fraction, 3M NaCl: 0%
  Percent Eluted by Fraction, Flow: 100%
Immunoglobulin G (IgG); [6]
  Mass Protein per Eluate Fraction, Flow: 0.27 mg
A1PI [2]; 250 μg AlPI injected with 5 mg hSA, 20° C.
  Mass AlPI Eluted in Acid Eluate: 0.07 mg
A1PI [2]; 500 μg AlPI injected with 5 mg hSA, 20° C.
  Mass AlPI Eluted in Acid Eluate: 0.15 mg
A1PI [2]; 1000 μg AlPI injected with 5 mg hSA, 20° C.
  Mass AlPI Eluted in Acid Eluate: 0.39 mg
A1PI [2]; [7]
  Mass Protein per Eluate Fraction, 1M NaCl: 0.50 mg
  Mass Protein per Eluate Fraction, 2% Ac. Acid: 0.11 mg
  Mass Protein per Eluate Fraction, Flow: 0.01 mg
A1PI [2]; [8]
  Percent Eluted by Fraction, 1M NaCl: 80%
  Percent Eluted by Fraction, 2% Ac. Acid: 18%
  Percent Eluted by Fraction, 3M NaCl: 0%
  Percent Eluted by Fraction, Flow: 2%
A1PI [2]; [9]
  Mass Protein per Eluate Fraction, 1M NaCl: 0.42 mg
  Mass Protein per Eluate Fraction, 2% Ac. Acid: 0.45 mg
  Mass Protein per Eluate Fraction, 3M NaCl: 0.00 mg
A1PI [2]; [10]
  Percent Eluted by Fraction, 1M NaCl: 48%
  Percent Eluted by Fraction, 2% Ac. Acid: 52%
  Percent Eluted by Fraction, 3M NaCl: 0%
  Percent Eluted by Fraction, Flow: 0%
Immunoglobulin A (IgA)
  Percent Eluted by Fraction, 1M NaCl: 0%
  Percent Eluted by Fraction, 2% Acetic Acid: 31%
  Percent Eluted by Fraction, 3M NaCl: 0%
  Percent Eluted by Fraction, Flow: 69%
Immunoglobulin A (IgA); [6]
  Mass Protein per Eluate Fraction, 2% Acetic Acid: 0.09 mg
  Mass Protein per Eluate Fraction, Flow: 0.19 mg
A1PI [3]; A1PI
  Percent Eluted by Fraction, 1M NaCl: 22%
  Percent Eluted by Fraction, 2% Acetic Acid: 14%
  Percent Eluted by Fraction, 3M NaCl: 0%
  Percent Eluted by Fraction, Flow: 64%
  Mass Protein per Eluate Fraction, 1M NaCl: 0.20 mg
  Mass Protein per Eluate Fraction, 2% Acetic Acid: 0.13 mg
  Mass Protein per Eluate Fraction, Flow: 0.59 mg
[4]
  Percent Eluted by Fraction, 1M NaCl: 0%
  Percent Eluted by Fraction, 2% Acetic Acid: 100%
  Percent Eluted by Fraction, 3M NaCl: 0%
  Percent Eluted by Fraction, Flow: 0%
[4]; [6]
  Mass Protein per Eluate Fraction, 2% Acetic Acid: 0.35 mg

## VIYLVR: VIWLVR with Trp at position 3 replaced by Tyr
A1PI [1]; 4° C.
  % of Total A1PI Eluted by Fraction (Based on Absorbance at 280 nm), 1M NaCl: 28%
  % of Total A1PI Eluted by Fraction (Based on Absorbance at 280 nm), 2% Acetic Acid: 72%
  % of Total A1PI Eluted by Fraction (Based on Absorbance at 280 nm), Flowthrough: 0%
A1PI [1]; 20° C.
  % of Total A1PI Eluted by Fraction (Based on Absorbance at 280 nm), 1M NaCl: 15%
  % of Total A1PI Eluted by Fraction (Based on Absorbance at 280 nm), 2% Acetic Acid: 85%
  % of Total A1PI Eluted by Fraction (Based on Absorbance at 280 nm), Flowthrough: 0%
A1PI [2]; [11]
  Mass Protein per Eluate Fraction, 1M NaCl: 0.12 mg
  Mass Protein per Eluate Fraction, 2% Acetic Acid: 0.75 mg
  Mass Protein per Eluate Fraction, Flow: 0.12 mg
A1PI [2]; [12]
  Percent Eluted by Fraction, 1M NaCl: 12%
  Percent Eluted by Fraction, 2% Acetic Acid: 76%
  Percent Eluted by Fraction, 3M NaCl: 0%
  Percent Eluted by Fraction, Flow: 12%
A1PI [2]; [13]
  Mass Protein per Eluate Fraction, 1M NaCl: 0.07 mg
  Mass Protein per Eluate Fraction, 2% Acetic Acid: 0.48 mg
  Mass Protein per Eluate Fraction, Flow: 0.13 mg
A1PI [2]; [14]
  Percent Eluted by Fraction, 1M NaCl: 11%
  Percent Eluted by Fraction, 2% Acetic Acid: 70%
  Percent Eluted by Fraction, 3M NaCl: 0%
  Percent Eluted by Fraction, Flow: 19%
A1PI [3]; [15]
  Mass A1PI per Eluate Fraction, 1M NaCl: 0.05 mg
  Mass A1PI per Eluate Fraction, 2% Acetic Acid: 0.57 mg
  Mass A1PI per Eluate Fraction, Flowthrough: 0.22 mg
A1PI [3]; Table 11, A1PI
  Percent Eluted by Fraction, 1M NaCl: 6%
  Percent Eluted by Fraction, 2% Acetic Acid: 68%
  Percent Eluted by Fraction, Flowthrough: 27%
A1PI [5]; [16]
  Mass A1PI per Eluate Fraction, 1M NaCl: 0.12 mg
  Mass A1PI per Eluate Fraction, 2% Acetic Acid: 0.16 mg
  Mass A1PI per Eluate Fraction, Flowthrough: 0.46 mg
A1PI [5]; [17]
  Percent Eluted by Fraction, 1M NaCl: 16%
  Percent Eluted by Fraction, 2% Acetic Acid: 22%
  Percent Eluted by Fraction, Flowthrough: 62%
